B1: 1-A2_VH-par_VL-par (antibody, human IgG1, kappa)
heavy chain: not shown
light chain: AIEMTQTPPSLSASVGETVRIRCLASEDIYSGISWYQQKPGKPPTLLIYGASNLESGVPPRFSGSGSGTDYTLTIGGVQAEDAATYYCLGGHSHSTTDLTFGAGTKVEIKTVAAPSVFIFPPSDEQLKSGTASVVCLLNNFYPREAKVQWKVDNALQSGNSQESVTEQDSKDSTYSLSSTLTLSKADYEKHKVYACEVTHQGLSSPVTKSFNRGEC
notes: also called 1-A2_parental (hIgG1)
B2: 4-H3_VH-par_VL-par (antibody, human IgG1, kappa)
heavy chain: not shown
light chain: AYDMTQTPPSLSASVGETVRIRCLASEDIASGISWYQQKPGKPPTLLIYGASNLESGVPPRFSGSGSGTDYTLTIGGVQAEDAATYYCLGGYSFSSNGLTFGAGTKVEIKTVAAPSVFIFPPSDEQLKSGTASVVCLLNNFYPREAKVQWKVDNALQSGNSQESVTEQDSKDSTYSLSSTLTLSKADYEKHKVYACEVTHQGLSSPVTKSFNRGEC
notes: also called 4-H3_parental (hIgG1)
B3: 1-A2_VH-par_L1 (antibody, human IgG1, kappa, V domains shown)
VH: SQSVEESGGRLVPPGTPLTLTCTVSGIDLTSNAMNWVRQAPGKGLEWIGGIYGHDTSYYAAWAKGRFTISRTSTTVDLKMTRPTTDDTATYFCARGFIYFDIWGTGTLVTISS
VL: DIQMTQSPSSLSASVGDRVTITCLASEDIYSGISWYQQKPGKAPKLLIYGASNLESGVPSRFSGSGSGTDYTLTISSLQPEDFATYYCLGGHSHSTTDLTFGGGTKVEIKT
notes: also called 1-A2_L1 (hIgG1K)
B4: 1-A2_VH-par_L0 (antibody, human IgG1, kappa, V domains shown)
VH: SQSVEESGGRLVPPGTPLTLTCTVSGIDLTSNAMNWVRQAPGKGLEWIGGIYGHDTSYYAAWAKGRFTISRTSTTVDLKMTRPTTDDTATYFCARGFIYFDIWGTGTLVTISS
VL: DIQMTQSPSSLSASVGDRVTITCLASEDIYSGISWYQQKPGKAPKLLIYGASNLESGVPSRFSGSGSGTDFTLTISSLQPEDFATYYCLGGHSHSTTDLTFGGGTKVEIKT
notes: also called 1-A2_L0 (hIgG1K)
B5: 4-H3_VH-par_L0 (antibody, human IgG1, kappa, V domains shown)
VH: SQSLEESGGRLVPPGTPLTLTCTVSGIDLTSNAMNWVRQAPGKGLEWIGGIYGHDTSYYAAWAKGRFTISRTSTTVDLKMTRPTTDDTATYFCARGFIYFDIWGTGTLVTISS
VL: DIQMTQSPSSLSASVGDRVTITCLASEDIASGISWYQQKPGKAPKLLIYGASNLESGVPSRFSGSGSGTDFTLTISSLQPEDFATYYCLGGYSFSSNGLTFGGGTKVEIKT
notes: also called 4-H3_L0 (hIgG1K)
B6: 4-H3_VH-par_L1 (antibody, human IgG1, kappa, V domains shown)
VH: SQSLEESGGRLVPPGTPLTLTCTVSGIDLTSNAMNWVRQAPGKGLEWIGGIYGHDTSYYAAWAKGRFTISRTSTTVDLKMTRPTTDDTATYFCARGFIYFDIWGTGTLVTISS
VL: DYQMTQSPSSLSASVGDRVTITCLASEDIASGISWYQQKPGKAPKLLIYGASNLESGVPSRFSGSGSGTDYTLTISSLQPEDFATYYCLGGYSFSSNGLTFGGGTKVEIKT
notes: also called 4-H3_L1 (hIgG1K)
B7: 4-H3_H8_VL-par (antibody, human IgG1, kappa, V domains shown)
VH: QQLVESGGGVVQPGRSLRLSCAASGIDLTSNAMNWVRQAPGKGLEWIGGIYGHDTSYYAAWAKGRFTISRDSNTVYLQMNSLRAEDTATYFCARGFIYFDIWGQGTLVTVSS
VL: AYDMTQTPPSLSASVGETVRIRCLASEDIASGISWYQQKPGKPPTLLIYGASNLESGVPPRFSGSGSGTDYTLTIGGVQAEDAATYYCLGGYSFSSNGLTFGAGTKVEIKT
notes: also called 4-H3_H8 (hIgG1)
B8: 1-A2_H2_VL-par (antibody, human IgG1, kappa, V domains shown)
VH: QQLVESGGGVVQPGRSLRLSCAASGIDLTSNAMNWVRQAPGKGLEWIGGIYGHDTSYYAAWAKGRFTISRDSNTVYLQMNSLRAEDTATYFCARGFIYFDIWGQGTLVTVSS
VL: AIEMTQTPPSLSASVGETVRIRCLASEDIYSGISWYQQKPGKPPTLLIYGASNLESGVPPRFSGSGSGTDYTLTIGGVQAEDAATYYCLGGHSHSTTDLTFGAGTKVEIKT
notes: also called 1-A2_H2 (hIgG1)
B9: 4-H3_H6_VL-par rep (antibody, human IgG1, kappa)
heavy chain: not shown
light chain: AYDMTQTPPSLSASVGETVRIRCLASEDIASGISWYQQKPGKPPTLLIYGASNLESGVPPRFSGSGSGTDYTLTIGGVQAEDAATYYCLGGYSFSSNGLTFGAGTKVEIKTVAAPSVFIFPPSDEQLKSGTASVVCLLNNFYPREAKVQWKVDNALQSGNSQESVTEQDSKDSTYSLSSTLTLSKADYEKHKVYACEVTHQGLSSPVTKSFNRGEC
notes: also called 4-H3_H6 (hIgG1)
B10: 4-H3_H8_L0 (antibody, human IgG1, kappa, V domains shown)
VH: QQLVESGGGVVQPGRSLRLSCAASGIDLTSNAMNWVRQAPGKGLEWIGGIYGHDTSYYAAWAKGRFTISRDSNTVYLQMNSLRAEDTATYFCARGFIYFDIWGQGTLVTVSS
VL: DIQMTQSPSSLSASVGDRVTITCLASEDIASGISWYQQKPGKAPKLLIYGASNLESGVPSRFSGSGSGTDFTLTISSLQPEDFATYYCLGGYSFSSNGLTFGGGTKVEIKT
notes: humanised, human IgG1 kappa
B11: 1-A2_H2_L0 (antibody, human IgG1, kappa, V domains shown)
VH: QQLVESGGGVVQPGRSLRLSCAASGIDLTSNAMNWVRQAPGKGLEWIGGIYGHDTSYYAAWAKGRFTISRDSNTVYLQMNSLRAEDTATYFCARGFIYFDIWGQGTLVTVSS
VL: DIQMTQSPSSLSASVGDRVTITCLASEDIYSGISWYQQKPGKAPKLLIYGASNLESGVPSRFSGSGSGTDFTLTISSLQPEDFATYYCLGGHSHSTTDLTFGGGTKVEIKT
notes: humanised, human IgG1 kappa
B12: 1-A2_H2_L1 (antibody, human IgG1, kappa, V domains shown)
VH: QQLVESGGGVVQPGRSLRLSCAASGIDLTSNAMNWVRQAPGKGLEWIGGIYGHDTSYYAAWAKGRFTISRDSNTVYLQMNSLRAEDTATYFCARGFIYFDIWGQGTLVTVSS
VL: DIQMTQSPSSLSASVGDRVTITCLASEDIYSGISWYQQKPGKAPKLLIYGASNLESGVPSRFSGSGSGTDYTLTISSLQPEDFATYYCLGGHSHSTTDLTFGGGTKVEIKT
notes: humanised, human IgG1 kappa
B13: 4-H3_H8_L1 (antibody, human IgG1, kappa, V domains shown)
VH: QQLVESGGGVVQPGRSLRLSCAASGIDLTSNAMNWVRQAPGKGLEWIGGIYGHDTSYYAAWAKGRFTISRDSNTVYLQMNSLRAEDTATYFCARGFIYFDIWGQGTLVTVSS
VL: DYQMTQSPSSLSASVGDRVTITCLASEDIASGISWYQQKPGKAPKLLIYGASNLESGVPSRFSGSGSGTDYTLTISSLQPEDFATYYCLGGYSFSSNGLTFGGGTKVEIKT
notes: humanised, human IgG1 kappa
B14: 1-A2_H0_VL-par (antibody, human IgG1, kappa, V domains shown)
VH: QVQLVESGGGVVQPGRSLRLSCAASGFTFSSNAMNWVRQAPGKGLEWVAGIYGHDTSYYAAWAKGRFTISRDNSKNTLYLQMNSLRAEDTAVYYCARGFIYFDIWGQGTLVTVSS
VL: AIEMTQTPPSLSASVGETVRIRCLASEDIYSGISWYQQKPGKPPTLLIYGASNLESGVPPRFSGSGSGTDYTLTIGGVQAEDAATYYCLGGHSHSTTDLTFGAGTKVEIKT
notes: also called 1-A2_H0 (hIgG1)
B15: 1-A2_H1_VL-par (antibody, human IgG1, kappa, V domains shown)
VH: QVQLVESGGGVVQPGRSLRLSCAASGIDLTSNAMNWVRQAPGKGLEWVAGIYGHDTSYYAAWAKGRFTISRDNSKNTLYLQMNSLRAEDTAVYYCARGFIYFDIWGQGTLVTVSS
VL: AIEMTQTPPSLSASVGETVRIRCLASEDIYSGISWYQQKPGKPPTLLIYGASNLESGVPPRFSGSGSGTDYTLTIGGVQAEDAATYYCLGGHSHSTTDLTFGAGTKVEIKT
notes: also called 1-A2_H1 (hIgG1)
B16: 4-H3_H7_VL-par (antibody, human IgG1, kappa, V domains shown)
VH: QVQLVESGGGVVQPGRSLRLSCAASGIDLTSNAMNWVRQAPGKGLEWIGGIYGHDTSYYAAWAKGRFTISRDNSKNTVYLQMNSLRAEDTATYFCARGFIYFDIWGQGTLVTVSS
VL: AYDMTQTPPSLSASVGETVRIRCLASEDIASGISWYQQKPGKPPTLLIYGASNLESGVPPRFSGSGSGTDYTLTIGGVQAEDAATYYCLGGYSFSSNGLTFGAGTKVEIKT
notes: also called 4-H3_H7 (hIgG1)
B17: 1-A2_H0_L0 (antibody, human IgG1, kappa, V domains shown)
VH: QVQLVESGGGVVQPGRSLRLSCAASGFTFSSNAMNWVRQAPGKGLEWVAGIYGHDTSYYAAWAKGRFTISRDNSKNTLYLQMNSLRAEDTAVYYCARGFIYFDIWGQGTLVTVSS
VL: DIQMTQSPSSLSASVGDRVTITCLASEDIYSGISWYQQKPGKAPKLLIYGASNLESGVPSRFSGSGSGTDFTLTISSLQPEDFATYYCLGGHSHSTTDLTFGGGTKVEIKT
notes: humanised, human IgG1 kappa
B18: 1-A2_H0_L1 (antibody, human IgG1, kappa, V domains shown)
VH: QVQLVESGGGVVQPGRSLRLSCAASGFTFSSNAMNWVRQAPGKGLEWVAGIYGHDTSYYAAWAKGRFTISRDNSKNTLYLQMNSLRAEDTAVYYCARGFIYFDIWGQGTLVTVSS
VL: DIQMTQSPSSLSASVGDRVTITCLASEDIYSGISWYQQKPGKAPKLLIYGASNLESGVPSRFSGSGSGTDYTLTISSLQPEDFATYYCLGGHSHSTTDLTFGGGTKVEIKT
notes: humanised, human IgG1 kappa
B19: 1-A2_H1_L0 (antibody, human IgG1, kappa, V domains shown)
VH: QVQLVESGGGVVQPGRSLRLSCAASGIDLTSNAMNWVRQAPGKGLEWVAGIYGHDTSYYAAWAKGRFTISRDNSKNTLYLQMNSLRAEDTAVYYCARGFIYFDIWGQGTLVTVSS
VL: DIQMTQSPSSLSASVGDRVTITCLASEDIYSGISWYQQKPGKAPKLLIYGASNLESGVPSRFSGSGSGTDFTLTISSLQPEDFATYYCLGGHSHSTTDLTFGGGTKVEIKT
notes: humanised, human IgG1 kappa
B20: 1-A2_H1_L1 (antibody, human IgG1, kappa, V domains shown)
VH: QVQLVESGGGVVQPGRSLRLSCAASGIDLTSNAMNWVRQAPGKGLEWVAGIYGHDTSYYAAWAKGRFTISRDNSKNTLYLQMNSLRAEDTAVYYCARGFIYFDIWGQGTLVTVSS
VL: DIQMTQSPSSLSASVGDRVTITCLASEDIYSGISWYQQKPGKAPKLLIYGASNLESGVPSRFSGSGSGTDYTLTISSLQPEDFATYYCLGGHSHSTTDLTFGGGTKVEIKT
notes: humanised, human IgG1 kappa

What follows are binders tested against human full-length VWF (human, UniProt P04275 764-2813) (assay: SPR, Biacore T200, antibody captured on Protein A, full-length VWF as analyte, single-cycle kinetics).
Description: Antibodies were captured on Protein A sensor chip. The system was purged using running buffer (10 mM HEPES pH 7.4, 300 mM NaCl, 3 mM EDTA, 0.05% P20) and a series S Protein A chip was docked in the Biacore T200. The surface was conditioned with 10 mM glycine-HCl pH 1.5 regeneration solution (3 injections). Each antibody was diluted to ˜0.8 μg/ml in running buffer to capture ˜350 RU on flow cells 2, 3 and 4 (flow cell 1 used as in-line reference cell). Single-cycle kinetic analysis of human full-length VWF binding to antibodies was performed using the following parameters:
Binder B1 has a Kd of 0.000125 nM.
B2 was tested, and the Kd was 0.0717 nM.
With B3 the Kd was 0.00707 nM, the koff was 1.81e-07 s⁻¹ and the kon was 25600 M⁻¹ s⁻¹.
Binder B4 has a Kd of 0.0125 nM, a koff of 7.44e-07 s⁻¹ and a kon of 59600 M⁻¹ s⁻¹.
B5 was tested, and the Kd was 0.00173 nM, the koff was 8.46e-08 s⁻¹ and the kon was 48800 M⁻¹ s⁻¹.
In the case of B6, the Kd is reported as 0.00143 nM, the koff is reported as 1.75e-08 s⁻¹ and the kon is reported as 12300 M⁻¹ s⁻¹.
B7 was tested, and the Kd was 0.0109 nM, the koff was 5.99e-07 s⁻¹ and the kon was 54900 M⁻¹ s⁻¹.
B8 gave a Kd of 0.318 nM, a koff of 7.8e-06 s⁻¹ and a kon of 24500 M⁻¹ s⁻¹.
B9 gave a Kd of 0.00655 nM, a koff of 3.63e-07 s⁻¹ and a kon of 55300 M⁻¹ s⁻¹.
Work on B10 yielded a Kd of 0.0125 nM, a koff of 5.66e-07 s⁻¹ and a kon of 45200 M⁻¹ s⁻¹.
With B11 the Kd was 0.0969 nM, the koff was 3.5e-06 s⁻¹ and the kon was 36100 M⁻¹ s⁻¹.
With B12 the Kd was 0.00203 nM, the koff was 3.84e-08 s⁻¹ and the kon was 19000 M⁻¹ s⁻¹.
Work on B13 yielded a Kd of 0.0173 nM, a koff of 9.15e-07 s⁻¹ and a kon of 52800 M⁻¹ s⁻¹.
With B14 the Kd was 0.0176 nM, the koff was 6.18e-07 s⁻¹ and the kon was 35100 M⁻¹ s⁻¹.
Work on B15 yielded a Kd of 0.0238 nM, a koff of 9.49e-07 s⁻¹ and a kon of 39800 M⁻¹ s⁻¹.
In the case of B16, the Kd is reported as 0.0104 nM, the koff is reported as 3.05e-07 s⁻¹ and the kon is reported as 29300 M⁻¹ s⁻¹.
B17 gave a Kd of 0.000231 nM, a koff of 2.74e-08 s⁻¹ and a kon of 119000 M⁻¹ s⁻¹.
For B18, the Kd was 0.0432 nM, the koff was 2.73e-06 s⁻¹ and the kon was 63200 M⁻¹ s⁻¹.
In the case of B19, the Kd is reported as 0.0187 nM, the koff is reported as 6.54e-07 s⁻¹ and the kon is reported as 34900 M⁻¹ s⁻¹.
In the case of B20, the Kd is reported as 0.00589 nM, the koff is reported as 1.4e-07 s⁻¹ and the kon is reported as 23800 M⁻¹ s⁻¹.
